PMC3383726

Target: chimera of the human sst5 receptor with the carboxyl-terminal tail of the human sst2 receptor (hsst5-sst2CT) (human)
Test: radioligand binding; competition against 0.05 nM [125I-Tyr11]-SS-14 on membrane preparations (30 µg protein) of stably transfected HEK293 cells; competitor 10^-12 to 10^-6 M; 10 mM HEPES, 5 mM MgCl2, 5 µg/ml bacitracin, pH 7.5; 45 min, room temperature; vacuum filtration

For “Somatostatin (SS-14) (from UniProt P61278 103-116) (peptide)”, the IC50 was 0.0303 µM.
